Measured values: US20170360893A1 (Merck Sharp & Dohme, published 2017)
*1 amine or outer side, *2 acyl side, *3 side chain or, on linkers, in order; H or OH if unused. Where no end group is shown, it is not given here. Side-chain parts run from the residue outwards. [ ]: non-standard residue; d: D form. The star is where a group is joined. γGlu = O=C(O)[C@H](CCC(=O)[*:2])N[*:1]; Palmitoyl = CCCCCCCCCCCCCCCC(=O)*; Ac4c = NC1(C(=O)O)CCC1

B1: Co-agonist Peptide 10 (peptide)
peptide: HXQGTFTSDKSKYLDERAAQDFVQWLXDT
modifications: X2 = D-Ser; K10 conjugated to γEγEC16; X27 = methionine sulfone; C-terminal amide
B2: Co-agonist Peptide 13 (peptide)
peptide: H[Ac4c]QGTFTSDK([γGlu-γGlu-Palmitoyl])SKYLDERAAQDFVQWLLDT-NH2
modifications: N-terminus assumed
SMILES: CCCCCCCCCCCCCCCC(=O)N[C@@H](CCC(=O)N[C@@H](CCC(=O)NCCCC[C@H](NC(=O)[C@H](CC(=O)O)NC(=O)[C@H](CO)NC(=O)[C@@H](NC(=O)[C@H](Cc1ccccc1)NC(=O)[C@@H](NC(=O)CNC(=O)[C@H](CCC(N)=O)NC(=O)C1(NC(=O)[C@@H](N)Cc2c[nH]cn2)CCC1)[C@@H](C)O)[C@@H](C)O)C(=O)N[C@@H](CO)C(=O)N[C@@H](CCCCN)C(=O)N[C@@H](Cc1ccc(O)cc1)C(=O)N[C@@H](CC(C)C)C(=O)N[C@@H](CC(=O)O)C(=O)N[C@@H](CCC(=O)O)C(=O)N[C@@H](CCCNC(=N)N)C(=O)N[C@@H](C)C(=O)N[C@@H](C)C(=O)N[C@@H](CCC(N)=O)C(=O)N[C@@H](CC(=O)O)C(=O)N[C@@H](Cc1ccccc1)C(=O)N[C@H](C(=O)N[C@@H](CCC(N)=O)C(=O)N[C@@H](Cc1c[nH]c2ccccc12)C(=O)N[C@@H](CC(C)C)C(=O)N[C@@H](CC(C)C)C(=O)N[C@@H](CC(=O)O)C(=O)N[C@H](C(N)=O)[C@@H](C)O)C(C)C)C(=O)O)C(=O)O
B3: Comparator Co-agonist Peptide 6 (peptide)
peptide: HXQGTFTSDKSKYLDERAAQDFVQWLLDT
modifications: X2 = D-Ser; K10 conjugated to γEγEC16; C-terminal amide
B4: Co-agonist Peptide 3 (peptide)
peptide: H[dS]QGTFTSDK([γGlu-γGlu-Palmitoyl])SKYLDVRAAQDFVQWLLDT-NH2
modifications: N-terminus assumed
SMILES: CCCCCCCCCCCCCCCC(=O)N[C@@H](CCC(=O)N[C@@H](CCC(=O)NCCCC[C@H](NC(=O)[C@H](CC(=O)O)NC(=O)[C@H](CO)NC(=O)[C@@H](NC(=O)[C@H](Cc1ccccc1)NC(=O)[C@@H](NC(=O)CNC(=O)[C@H](CCC(N)=O)NC(=O)[C@@H](CO)NC(=O)[C@@H](N)Cc1c[nH]cn1)[C@@H](C)O)[C@@H](C)O)C(=O)N[C@@H](CO)C(=O)N[C@@H](CCCCN)C(=O)N[C@@H](Cc1ccc(O)cc1)C(=O)N[C@@H](CC(C)C)C(=O)N[C@@H](CC(=O)O)C(=O)N[C@H](C(=O)N[C@@H](CCCNC(=N)N)C(=O)N[C@@H](C)C(=O)N[C@@H](C)C(=O)N[C@@H](CCC(N)=O)C(=O)N[C@@H](CC(=O)O)C(=O)N[C@@H](Cc1ccccc1)C(=O)N[C@H](C(=O)N[C@@H](CCC(N)=O)C(=O)N[C@@H](Cc1c[nH]c2ccccc12)C(=O)N[C@@H](CC(C)C)C(=O)N[C@@H](CC(C)C)C(=O)N[C@@H](CC(=O)O)C(=O)N[C@H](C(N)=O)[C@@H](C)O)C(C)C)C(C)C)C(=O)O)C(=O)O
B5: Co-agonist Peptide 8 (peptide)
peptide: H[dS]QGTFTSDK([γGlu-γGlu-Palmitoyl])SKYLEARAAQDFVQWLLDT-NH2
modifications: N-terminus assumed
SMILES: CCCCCCCCCCCCCCCC(=O)N[C@@H](CCC(=O)N[C@@H](CCC(=O)NCCCC[C@H](NC(=O)[C@H](CC(=O)O)NC(=O)[C@H](CO)NC(=O)[C@@H](NC(=O)[C@H](Cc1ccccc1)NC(=O)[C@@H](NC(=O)CNC(=O)[C@H](CCC(N)=O)NC(=O)[C@@H](CO)NC(=O)[C@@H](N)Cc1c[nH]cn1)[C@@H](C)O)[C@@H](C)O)C(=O)N[C@@H](CO)C(=O)N[C@@H](CCCCN)C(=O)N[C@@H](Cc1ccc(O)cc1)C(=O)N[C@@H](CC(C)C)C(=O)N[C@@H](CCC(=O)O)C(=O)N[C@@H](C)C(=O)N[C@@H](CCCNC(=N)N)C(=O)N[C@@H](C)C(=O)N[C@@H](C)C(=O)N[C@@H](CCC(N)=O)C(=O)N[C@@H](CC(=O)O)C(=O)N[C@@H](Cc1ccccc1)C(=O)N[C@H](C(=O)N[C@@H](CCC(N)=O)C(=O)N[C@@H](Cc1c[nH]c2ccccc12)C(=O)N[C@@H](CC(C)C)C(=O)N[C@@H](CC(C)C)C(=O)N[C@@H](CC(=O)O)C(=O)N[C@H](C(N)=O)[C@@H](C)O)C(C)C)C(=O)O)C(=O)O
B6: Co-agonist Peptide 2 (peptide)
peptide: H[dS]QGTFTSDK([γGlu-γGlu-Palmitoyl])SKYLDVRRAQDFVQWLLDT-NH2
modifications: not fully specified; printed as HsQGTFTSDK(γEγEC16)SKYLDVRRAQDFVQWLLDT-NH2
B7: Co-agonist Peptide 1 (peptide)
peptide: H[dS]QGTFTSDK([γGlu-Palmitoyl])SKYLDARAAQDFVQWLLDT-NH2
modifications: N-terminus assumed
SMILES: CCCCCCCCCCCCCCCC(=O)N[C@@H](CCC(=O)NCCCC[C@H](NC(=O)[C@H](CC(=O)O)NC(=O)[C@H](CO)NC(=O)[C@@H](NC(=O)[C@H](Cc1ccccc1)NC(=O)[C@@H](NC(=O)CNC(=O)[C@H](CCC(N)=O)NC(=O)[C@@H](CO)NC(=O)[C@@H](N)Cc1c[nH]cn1)[C@@H](C)O)[C@@H](C)O)C(=O)N[C@@H](CO)C(=O)N[C@@H](CCCCN)C(=O)N[C@@H](Cc1ccc(O)cc1)C(=O)N[C@@H](CC(C)C)C(=O)N[C@@H](CC(=O)O)C(=O)N[C@@H](C)C(=O)N[C@@H](CCCNC(=N)N)C(=O)N[C@@H](C)C(=O)N[C@@H](C)C(=O)N[C@@H](CCC(N)=O)C(=O)N[C@@H](CC(=O)O)C(=O)N[C@@H](Cc1ccccc1)C(=O)N[C@H](C(=O)N[C@@H](CCC(N)=O)C(=O)N[C@@H](Cc1c[nH]c2ccccc12)C(=O)N[C@@H](CC(C)C)C(=O)N[C@@H](CC(C)C)C(=O)N[C@@H](CC(=O)O)C(=O)N[C@H](C(N)=O)[C@@H](C)O)C(C)C)C(=O)O
B8: Co-agonist Peptide 12 (peptide)
peptide: HXQGTFTSDXSKYLDARAAQDFVQWLLDT
modifications: X2 = D-Ser; X10 = para-aminomethyl phenylalanine (pAF) conjugated to γEγEC16; C-terminal amide
B9: Co-agonist Peptide 9 (peptide)
peptide: HXQGTXTSDKSKYLDERAAQDFVQWLLDT
modifications: X2 = D-Ser; X6 = p-fluoro phenylalanine (pFF); K10 conjugated to γEγEC16; C-terminal amide
B10: Co-agonist Peptide 5 (peptide)
peptide: H[dS]QGTFTSDK([γGlu-γGlu-Palmitoyl])SKYLDARAAQDFVQWLLDT-NH2
modifications: N-terminus assumed
SMILES: CCCCCCCCCCCCCCCC(=O)N[C@@H](CCC(=O)N[C@@H](CCC(=O)NCCCC[C@H](NC(=O)[C@H](CC(=O)O)NC(=O)[C@H](CO)NC(=O)[C@@H](NC(=O)[C@H](Cc1ccccc1)NC(=O)[C@@H](NC(=O)CNC(=O)[C@H](CCC(N)=O)NC(=O)[C@@H](CO)NC(=O)[C@@H](N)Cc1c[nH]cn1)[C@@H](C)O)[C@@H](C)O)C(=O)N[C@@H](CO)C(=O)N[C@@H](CCCCN)C(=O)N[C@@H](Cc1ccc(O)cc1)C(=O)N[C@@H](CC(C)C)C(=O)N[C@@H](CC(=O)O)C(=O)N[C@@H](C)C(=O)N[C@@H](CCCNC(=N)N)C(=O)N[C@@H](C)C(=O)N[C@@H](C)C(=O)N[C@@H](CCC(N)=O)C(=O)N[C@@H](CC(=O)O)C(=O)N[C@@H](Cc1ccccc1)C(=O)N[C@H](C(=O)N[C@@H](CCC(N)=O)C(=O)N[C@@H](Cc1c[nH]c2ccccc12)C(=O)N[C@@H](CC(C)C)C(=O)N[C@@H](CC(C)C)C(=O)N[C@@H](CC(=O)O)C(=O)N[C@H](C(N)=O)[C@@H](C)O)C(C)C)C(=O)O)C(=O)O
B11: Co-agonist Peptide 14 (peptide)
peptide: HXQGTXTSDKSKYLDERAAQDFVQWLLDT
modifications: not fully specified; X2 = D-Ser; X6 = threo-β-Phenylserine (tβP); K10 conjugated to γEγEC16; C-terminal amide
B12: Co-agonist Peptide 11 (peptide)
peptide: H[dS]QGTFTSDK([γGlu-γGlu-Palmitoyl])SLYLDERAAQDFVQWLLDT-NH2
modifications: N-terminus assumed
SMILES: CCCCCCCCCCCCCCCC(=O)N[C@@H](CCC(=O)N[C@@H](CCC(=O)NCCCC[C@H](NC(=O)[C@H](CC(=O)O)NC(=O)[C@H](CO)NC(=O)[C@@H](NC(=O)[C@H](Cc1ccccc1)NC(=O)[C@@H](NC(=O)CNC(=O)[C@H](CCC(N)=O)NC(=O)[C@@H](CO)NC(=O)[C@@H](N)Cc1c[nH]cn1)[C@@H](C)O)[C@@H](C)O)C(=O)N[C@@H](CO)C(=O)N[C@@H](CC(C)C)C(=O)N[C@@H](Cc1ccc(O)cc1)C(=O)N[C@@H](CC(C)C)C(=O)N[C@@H](CC(=O)O)C(=O)N[C@@H](CCC(=O)O)C(=O)N[C@@H](CCCNC(=N)N)C(=O)N[C@@H](C)C(=O)N[C@@H](C)C(=O)N[C@@H](CCC(N)=O)C(=O)N[C@@H](CC(=O)O)C(=O)N[C@@H](Cc1ccccc1)C(=O)N[C@H](C(=O)N[C@@H](CCC(N)=O)C(=O)N[C@@H](Cc1c[nH]c2ccccc12)C(=O)N[C@@H](CC(C)C)C(=O)N[C@@H](CC(C)C)C(=O)N[C@@H](CC(=O)O)C(=O)N[C@H](C(N)=O)[C@@H](C)O)C(C)C)C(=O)O)C(=O)O
B13: Co-agonist Peptide 7 (peptide)
peptide: Ac-HAQGTFTSDK([γGlu-γGlu-C16])SKYLDERAAQDFVQWLLDT-NH2

biological target: human glucagon receptor (human, UniProt P47871 26-477); assay: cell-based or functional assay
Sequence (P47871 26-477): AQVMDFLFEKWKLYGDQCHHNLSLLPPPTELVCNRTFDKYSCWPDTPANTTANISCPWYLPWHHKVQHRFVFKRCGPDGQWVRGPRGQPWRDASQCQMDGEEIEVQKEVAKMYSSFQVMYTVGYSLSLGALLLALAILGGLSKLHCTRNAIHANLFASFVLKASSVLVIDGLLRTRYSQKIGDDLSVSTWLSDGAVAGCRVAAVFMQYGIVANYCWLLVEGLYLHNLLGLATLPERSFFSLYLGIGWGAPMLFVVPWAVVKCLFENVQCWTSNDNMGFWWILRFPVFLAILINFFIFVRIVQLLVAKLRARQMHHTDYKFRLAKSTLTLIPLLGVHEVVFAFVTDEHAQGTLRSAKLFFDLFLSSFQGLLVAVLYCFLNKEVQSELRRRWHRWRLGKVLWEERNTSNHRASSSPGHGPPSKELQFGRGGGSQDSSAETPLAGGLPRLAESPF

Binder	GCGR EC50 (nM) human; cAMP production (HitHunter cAMP XS) in cells expressing human GCGR, 20% human serum [nM]
B1	0.02
B2	0.06
B3	0.009
B4	0.08
B5	0.02
B6	0.041
B7	0.042
B8	0.05
B9	0.05
B10	0.03
B11	1.04
B12	0.06
B13	0.07

biological target: human glucagon-like peptide 1 receptor (human, UniProt P43220 24-463); assay: cell-based or functional assay

Binder	GLPR1 EC50 (nM) human; cAMP production (HitHunter cAMP XS) in cells expressing human GLP-1R, 20% human serum [nM]
B1	0.02
B2	0.05
B3	0.007
B4	0.13
B5	0.02
B6	0.16
B7	0.048
B8	0.05
B9	0.06
B10	0.033
B11	1.02
B12	0.06
B13	0.07
